Test results from PMC7133768.

Columns and labels:
Assay in all cases: oxygen consumption assay
Format in all cases: biochemical, Chloracidobacterium thermophilum
oxygen consumption assay [1] = substrate: N[C@@H](CS)C(=O)O; conditions: co-substrate hercynine
oxygen consumption assay [2] = substrate: C[N+](C)(C)[C@@H](Cc1cnc[nH]1)C(=O)[O-]; conditions: co-substrate L-Cys
oxygen consumption assay [3] = substrate: N[C@@H](CCC(=O)N[C@@H](CS)C(=O)O)C(=O)O; conditions: co-substrate hercynine

Protein | Km (oxygen consumption assay [1]) | kcat (oxygen consumption assay [1]) | kcat/Km (oxygen consumption assay [1]) | Km (oxygen consumption assay [2]) | kcat (oxygen consumption assay [2]) | kcat/Km (oxygen consumption assay [2]) | kcat/Km (oxygen consumption assay [3]) | Km (oxygen consumption assay [2]; Fe(II) enzyme)
EgtBCth (Cabther_A1318) (Chloracidobacterium thermophilum B; A420Y/D52L) (protein) EAARSHPEPIQSGEVSDRKAWQRHYRAVRAVSEAICQPLETEDYVVQPMPLVSPPKWHLGHTSWFFETFILKSGLADYRPFHPRYDYIFNSYYEAVGARHPRPQRGLLTRPTVSEVYAYRAHVDAAVERFIAHSDTRTWAALQPILELGLHHEQQHQELLLTDIKAILATNPLDPVYRPQPQPLPSPVEQLSPTGDWHIVEGGRYAIGHAGRGFAFDNEGPRHDVLLRPCRIAARPVTNGEFLAFMADGGYRRPELWLSDGWAAVTARGWEAPLYWRQAADGTWETLTLHGVQPVAPYEPVCHISFYEADAYARWAGKRLPTEAEWEVVAARLPVTGNFYESGVLHPRPVSVSAAFYGDVWVWTASPYVGYPGFRPVSGALGEYNGKFMCNQMVLRGGSCATSLTHIRSTYRNFFPPDYRWQFTGVRLAEDMS | 48.7 ± 3.5 µM | 0.545 ± 0.005 s⁻¹ | 11200 ± 667 M⁻¹ s⁻¹ | 23.3 ± 1.2 µM | 0.545 ± 0.005 s⁻¹ | 23300 ± 1170 M⁻¹ s⁻¹ |  | 
EgtBCth (Cabther_A1318) (Chloracidobacterium thermophilum B) (protein) EAARSHPEPIQSGEVSDRKAWQRHYRAVRAVSEAICQPLETEDYVVQPMPDVSPPKWHLGHTSWFFETFILKSGLADYRPFHPRYDYIFNSYYEAVGARHPRPQRGLLTRPTVSEVYAYRAHVDAAVERFIAHSDTRTWAALQPILELGLHHEQQHQELLLTDIKAILATNPLDPVYRPQPQPLPSPVEQLSPTGDWHIVEGGRYAIGHAGRGFAFDNEGPRHDVLLRPCRIAARPVTNGEFLAFMADGGYRRPELWLSDGWAAVTARGWEAPLYWRQAADGTWETLTLHGVQPVAPYEPVCHISFYEADAYARWAGKRLPTEAEWEVVAARLPVTGNFYESGVLHPRPVSVSAAFYGDVWVWTASPYVGYPGFRPVSGALGEYNGKFMCNQMVLRGGSCATSLTHIRSTYRNFFPPDARWQFTGVRLAEDMS | 205 ± 18 µM |  | 2170 ± 167 M⁻¹ s⁻¹ |  |  |  | 50 ± 8.33 M⁻¹ s⁻¹ | 87.7 ± 7.6 µM
EgtBCth (Cabther_A1318) (Chloracidobacterium thermophilum B; D52L) (protein) EAARSHPEPIQSGEVSDRKAWQRHYRAVRAVSEAICQPLETEDYVVQPMPLVSPPKWHLGHTSWFFETFILKSGLADYRPFHPRYDYIFNSYYEAVGARHPRPQRGLLTRPTVSEVYAYRAHVDAAVERFIAHSDTRTWAALQPILELGLHHEQQHQELLLTDIKAILATNPLDPVYRPQPQPLPSPVEQLSPTGDWHIVEGGRYAIGHAGRGFAFDNEGPRHDVLLRPCRIAARPVTNGEFLAFMADGGYRRPELWLSDGWAAVTARGWEAPLYWRQAADGTWETLTLHGVQPVAPYEPVCHISFYEADAYARWAGKRLPTEAEWEVVAARLPVTGNFYESGVLHPRPVSVSAAFYGDVWVWTASPYVGYPGFRPVSGALGEYNGKFMCNQMVLRGGSCATSLTHIRSTYRNFFPPDARWQFTGVRLAEDMS | 47.3 ± 2.4 µM |  |  | 13.2 ± 1.3 µM |  |  |  | 
EgtBCth (Cabther_A1318) (Chloracidobacterium thermophilum B; A420Y) (protein) EAARSHPEPIQSGEVSDRKAWQRHYRAVRAVSEAICQPLETEDYVVQPMPDVSPPKWHLGHTSWFFETFILKSGLADYRPFHPRYDYIFNSYYEAVGARHPRPQRGLLTRPTVSEVYAYRAHVDAAVERFIAHSDTRTWAALQPILELGLHHEQQHQELLLTDIKAILATNPLDPVYRPQPQPLPSPVEQLSPTGDWHIVEGGRYAIGHAGRGFAFDNEGPRHDVLLRPCRIAARPVTNGEFLAFMADGGYRRPELWLSDGWAAVTARGWEAPLYWRQAADGTWETLTLHGVQPVAPYEPVCHISFYEADAYARWAGKRLPTEAEWEVVAARLPVTGNFYESGVLHPRPVSVSAAFYGDVWVWTASPYVGYPGFRPVSGALGEYNGKFMCNQMVLRGGSCATSLTHIRSTYRNFFPPDYRWQFTGVRLAEDMS | 28.1 ± 1.8 µM |  | 16300 ± 1000 M⁻¹ s⁻¹ | 39.2 ± 1.6 µM |  | 11700 ± 500 M⁻¹ s⁻¹ |  | 
